Target: T1, Axl-Fc (R&D Systems) (UniProt P30530-2 26-440, limits assumed)
T1 construct: Bought reagent (R&D Systems, Minneapolis); also called Axl-Fc receptor; not shown: Fc part of the bought fusion
T1 sequence (looked up): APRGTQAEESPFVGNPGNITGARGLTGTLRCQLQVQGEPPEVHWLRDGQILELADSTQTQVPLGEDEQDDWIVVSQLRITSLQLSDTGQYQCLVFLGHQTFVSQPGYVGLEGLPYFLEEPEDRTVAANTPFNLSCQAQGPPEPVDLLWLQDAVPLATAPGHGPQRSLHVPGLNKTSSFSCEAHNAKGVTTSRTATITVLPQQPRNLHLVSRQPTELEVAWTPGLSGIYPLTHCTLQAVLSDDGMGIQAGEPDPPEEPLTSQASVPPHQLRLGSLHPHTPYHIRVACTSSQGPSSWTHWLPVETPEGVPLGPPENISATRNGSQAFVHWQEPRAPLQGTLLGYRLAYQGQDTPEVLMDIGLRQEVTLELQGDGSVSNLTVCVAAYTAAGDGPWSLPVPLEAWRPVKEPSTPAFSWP
Assay: EIA: plate coated with Axl-Fc, Gas6_Flag detected with HRP anti-Flag M2 antibody, OD490

B1: human Gas6_Flag (human Growth Arrest Specific Gene 6 protein with a Flag epitope tag at the C-terminus) (ligand)
chain: ALLPAREATQFLRPRQRRAFQVFEEAKQGHLERECVEELCSREEAREVFENDPETDYFYPRYLDCINKYGSPYTKNSGFATCVQNLPDQCTPNPCDRKGTQACQDLMGNFFCLCKAGWGGRLCDKDVNECSQENGGCLQICHNKPGSFHCSCHSGFELSSDGRTCQDIDECADSEACGEARCKNLPGSYSCLCDEGFAYSSQEKACRDVDECLQGRCEQVCVNSPGSYTCHCDGRGGLKLSQDMDTCEDILPCVPFSVAKSVKSLYLGRMFSGTPVIRLRFKRLQPTRLVAEFDFRTFDPEGILLFAGGHQDSTWIVLALRAGRLELQLRYNGVGRVTSSGPVINHGMWQTISVEELARNLVIKVNRDAVMKIAVAGDLFQPERGLYHLNLTVGGIPFHEKDLVQPINPRLDGCMRSWNWLNGEDTTIQETVKVNTRMQCFSVTERGSFYPGSGFAFYSLDYMRTPLDVGTESTWEVEVVAHIRPAADTGVLFALWAPDLRAVPLSVALVDYHSTKKLKKQLVVLAVEHTALALMEIKVCDGQEHVVTVSLRDGEATLEVDGTRGQSEVSAAQLQERLAVLERHLRSPVLTFAGGLPDVPVTSAPVTAFYRGCMTLEVNRRLLDLDEAAYKHSDITAHSCPPVEPAAADYKDDDDK
notes: Expressed from full-length cDNA in HEK293 cells grown with vitamin K1 and purified on anti-Flag M2 resin; 2'; also called Gas6_tag
  EC50: ~0.02 µg/mL
